US20210380994A1, “LACTOCOCCUS LACTIS EXPRESSION SYSTEM FOR DELIVERING PROTEINS EFFICACIOUS FOR THE TREATMENT OF EPITHELIAL BARRIER FUNCTION DISORDERS” (Second Genome, Inc., priority 2018, published 2021)

Experiment: PTM of SG-11 versus SG-11V5 after storage, LC-MS/MS (Example 10)
Format: physicochemical
Protocol: For this analysis, PTMs of wildtype SG-11 (SEQ ID NO:7) and SG-11V5 (SEQ ID NO:19) were compared. In the first analysis (results provided in Table 10 below), the proteins were stored at a concentration of 1 mg/ml in Buffer 1 (50 mM NaPO4, pH 8, 150 mM NaCl, 10% glycerol) and stored for 2 weeks at either 4° C. or 40° C. The proteins were then treated with DTT and Iodoacetamide (IAA), followed by trypsin digestion. The digested samples were then analyzed by Waters ACQUITY UPLC couples to Xevo G2-XS QTOF mass spectrometer using a Protein BEH C18 column.
In a second analysis, the SG-11 (SEQ ID NO:7) and SG-11V5 (SEQ ID NO:19) proteins were each stored at 40° C. in a variety of buffers. The storage buffer used in this experiment was 100 mM NaPO4, pH7, with 10% sorbitol (+Sor) or without 10% sorbitol (−Sor) and with 10% glycerol (+Gly) or without 10% glycerol (−Gly) as indicated in Table 11. […] There were also differences in levels of N137 deamidation for the two proteins with the presence of at least glycerol and also the presence of both sorbitol and glycerol resulting in large decreases in N137 deamidation.

[1] = 1 mg/ml in Buffer 1, 2 weeks at 40° C.
[2] = 40° C., 100 mM NaPO4, pH7, + Sor − Gly
[3] = 40° C., 100 mM NaPO4, pH7, + Sor − Sly (so in the source)
[4] = 40° C., 100 mM NaPO4, pH7, − Sor − Gly (first column)
[5] = 40° C., 100 mM NaPO4, pH7, − Sor − Gly (third column as printed)

B1: SG-11V5: variant of SEQ ID NO:7 with N53S, N83S, C147V, C151S (protein)
chain: MLEGEESVVYVGKKGVIASLDVETLDQSYYDETELKSYVDAEVEDYTAEHGKSAVKVESLKVEDGVAKLKMKYKTPEDYTAFSGIELYQGKVVASLAAGYVYDGEFARVEEGKVVGAATKQDIYSEDDLKVAIIRANTDVKVDGEIVYVSSQNVKLTGKDSVSIRDGYYLETGSVTASVDVTGQESVGTEQLSGTEQMEMTGEPVNADDTEQTEAAAGDGSFETDVYTFIVYK
modifications: Artificial variant of SG-11 (N53S, N83S, C147V, C151S)
- Oxidation of M1 (1 mg/ml in Buffer 1 (50 mM NaPO4, pH 8, 150 mM NaCl, 10% glycerol), 2 weeks at 4° C.): 2.5%
- Deamidation of N137 (1 mg/ml in Buffer 1, 2 weeks at 4° C.): 0.1%
- Deamidation of N137 [1]: 0.3%
- Oxidation of M1 [1]: 4.7%
- Deamidation of N137 [2]: 3.3%
- Oxidation of M1 [2]: 3.3%
- Deamidation of N137 [3]: 0.1%
- Oxidation of M1 [3]: 5.9%
- Deamidation of N137 [4]: 1.5%
- Oxidation of M1 [4]: 2.7%
- Deamidation of N137 [5]: 0.4%
- Oxidation of M1 [5]: 5.6%
